{
  "source": "patent US20130309230A1",
  "about": "(published 2013)",
  "molecular_target": "T1, UC4F10-11 hamster anti-mouse CTLA4 antibody",
  "T1 construct": "also called mouse anti-CTLA4 antibody (clone UC4 F10-11); anti-CTLA4",
  "T1 sequence (VH, as listed by the source limits assumed, chain 1 of 2)": "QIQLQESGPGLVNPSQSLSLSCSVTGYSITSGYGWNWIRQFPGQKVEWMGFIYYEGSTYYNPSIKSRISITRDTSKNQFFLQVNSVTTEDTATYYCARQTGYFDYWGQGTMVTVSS",
  "T1 sequence (VL, as listed by the source limits assumed, chain 2 of 2)": "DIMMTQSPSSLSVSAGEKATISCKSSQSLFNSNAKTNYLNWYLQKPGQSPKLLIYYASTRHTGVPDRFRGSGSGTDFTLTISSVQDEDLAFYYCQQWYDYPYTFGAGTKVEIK",
  "assay": "bacterial display / FACS screening with labelled anti-CTLA4 antibody",
  "experimental": "Subsequent rounds of enrichment were carried out using FACS. For the initial round of FACS, bacteria were sorted using biotinylated target (5 nM) and secondary labeling step with streptavidin phycoerythrin. […] Relative affinity and off-rate screening of individual clones were performed using a ficin digested Dylight-labeled Fab antibody fragment to reduce avidity effects of the bivalent antibody due to the expression of multiple peptides on the bacterial surface. As an additional test of target specificity, individual clones were screened for binding in the presence of 20 uM E. Coli depleted IgG as a competitor.",
  "data": [
    {"binder": "PCSEWQSMVQPRCYY (The printed peptide has A where the printed DNA encodes Q; also called MMneg; negative control MM)", "note": "[Negative control (does not bind anti-CTLA4)]", "values": [
      {"measurement": "binding result", "value": "no binding"}
    ]}
  ]
}
